According to PMC9221443, “Peptidomimetics Based on C-Terminus of Blm10 Stimulate Human 20S Proteasome Activity and Promote Degradation of Proteins” (Biomolecules, 2022):

Key:
Test in all cases: MST; NT-647-labelled protein kept constant (250 nM native and oxidized α-synuclein, 125 nM native enolase, 25 nM oxidized enolase), unlabelled h20S titrated in 16 dilutions from 1965 to 0.06 nM; 60 min (enolase) or 30 min (α-synuclein) at 22 °C; 20 mM Tris-HCl pH 7.2, 10% glycerol, 0.5 mM DTT, 0.5 mM NaN3, 0.125 mM EDTA, 100 mM NaCl; Hill fit, three independent experiments
[1] = target: oxidized α-synuclein (UniProt P37840)
[2] = target: oxidized human enolase 2 (human) (UniProt P09104)
[3] = target: α-synuclein (UniProt P37840)

- EC50 [1]: 67.6 nM
- EC50 [2]: 87.8 nM
- EC50 [3]: 32.3 nM
Substance: human 20S proteasome (from UniProt P25786 4-241; P28066 8-241; P28072 35-239; Q99436 44-277; P28074 60-263) (complex)
